Experiments:
Experiment in all cases: EMSA
Details in all cases: TNK buffer (composition and pH not in material), 30 C
[1] = biological target: Hfq:R16A R16A (Escherichia coli) (UniProt P0A6X3)
[2] = biological target: Hfq WT (Escherichia coli) (UniProt P0A6X3)
[3] = biological target: Hfq TM R16A;R17A;R19D (Escherichia coli) (UniProt P0A6X3)

Row | Substance | Kd [1] [nM] | Kd [2] [nM] | Kd [3] [nM]
1 | ArcZ56 sRNA | 190 | 49 | 
2 | DsrA sRNA | 373 | 132 | 300
3 | RprA sRNA | 623 | 187 | 
4 | rpoS323 mRNA leader | 196 | 144 | 

Reference: paper PMC3753642
